Tested on: p1
Test: p1 copy number by p1-encoded mKate2 fluorescence
Format: cell-based, S. cerevisiae
Details: OR-Y24, measured in triplicate
Procedure, shortened: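 Read-out is mKate2 fluorescence of saturated OR-Y24 cultures, measured by flow cytometry or by plate reader with OD600 normalization. Flow values were converted by a qPCR-derived linear calibration; plate values were scaled to a w.t. TP-DNAP1 control.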

Row | Molecule | Mean fold-increase over w.t. (p1 copy number)
1 | I311D: TP-DNAP1 variant (protein) MDYKDKALNDLRNVYADFDSLPLDFRQILIKDRATLLQKEDVEKKILERQEDAKKYAEYLKQSEIPERISLPNIKRHKGVSISFEETSEDMVLEPRPFIFDGLNIRCFRRETIFSLKNKILNMVKESSSFKNVSRQSVSFMYFKIFNKGKVIASTKSVNIYEDKIDERLEDLCNNFDDVLKKIIDVTYGYESLFVSETYSYVIFYAKSIYFPQPRCVNNWGNNIPNILTFDSFKLFTANKNNVSCIKQCSRFLWQKDFNTLEEMIEYKNGNICIVTPQLHINDVRDIKSFNDIRLYSESPIKTFSVIDNTDTYLFYFKEHLGVIFNITKSRHDRRVTKFSPLSKFSDVKNITVCFDIESYFDPEKESNQVNIPFICCASIIYNKVIGNIVDFEGRDCVAQMIEYVVDICGELNISSVELIAHNGGGYDFHYILSSMYNPAAIKNILIRNNSFISFNFAHDGVKFSVKDSYSFLLCSLANASKAFLNEETFKKTDFPHHDLKTADDLYKVYKEWSSVNTEINHVVEKEKLLITSEHIVNFTKNDKSKTLIEWSKDYCRNDVLVLSKVWLEFKNAVEDIFNCELVDQTMTLAGLSYKLFQANMPFDVELRHPNKEDYFNMREALIGGRCISVNGIYKDVLCLDVKSLYPASMAFYDQPYGSFKRVSSRPKDELGIYYVRVTPNRNNKSNFFPIRSHNKITYNNFEESTYIAWYTNVDIDIGLSEGHNIEYIPFDSYGNIGYSWSKKGKIFEKYIKDVLYKLKIKYEKQNNKVKRNVIKIIMNSLWGKFAQKWVNFEYFIKSEDDIDFESEEAYKIWDTDFMLIKKIKESTYSSKPIQNGVFTLSWARYHMKSIWDAGAKEGAECIYSDTDSIFVHKEHFKKNAKFMLNGLKVPIIGSEVGQLELECEFDKLLCAGKKQYMGFYTYFQDGKPCIKEKKRFKGIPSNYIIPELYAHLLSGADKEAKIQFLKFRREWGSVKGYIENKTVKAT | 1.86 fold
2 | T312E: TP-DNAP1 variant (protein) MDYKDKALNDLRNVYADFDSLPLDFRQILIKDRATLLQKEDVEKKILERQEDAKKYAEYLKQSEIPERISLPNIKRHKGVSISFEETSEDMVLEPRPFIFDGLNIRCFRRETIFSLKNKILNMVKESSSFKNVSRQSVSFMYFKIFNKGKVIASTKSVNIYEDKIDERLEDLCNNFDDVLKKIIDVTYGYESLFVSETYSYVIFYAKSIYFPQPRCVNNWGNNIPNILTFDSFKLFTANKNNVSCIKQCSRFLWQKDFNTLEEMIEYKNGNICIVTPQLHINDVRDIKSFNDIRLYSESPIKTFSVIDNTIEYLFYFKEHLGVIFNITKSRHDRRVTKFSPLSKFSDVKNITVCFDIESYFDPEKESNQVNIPFICCASIIYNKVIGNIVDFEGRDCVAQMIEYVVDICGELNISSVELIAHNGGGYDFHYILSSMYNPAAIKNILIRNNSFISFNFAHDGVKFSVKDSYSFLLCSLANASKAFLNEETFKKTDFPHHDLKTADDLYKVYKEWSSVNTEINHVVEKEKLLITSEHIVNFTKNDKSKTLIEWSKDYCRNDVLVLSKVWLEFKNAVEDIFNCELVDQTMTLAGLSYKLFQANMPFDVELRHPNKEDYFNMREALIGGRCISVNGIYKDVLCLDVKSLYPASMAFYDQPYGSFKRVSSRPKDELGIYYVRVTPNRNNKSNFFPIRSHNKITYNNFEESTYIAWYTNVDIDIGLSEGHNIEYIPFDSYGNIGYSWSKKGKIFEKYIKDVLYKLKIKYEKQNNKVKRNVIKIIMNSLWGKFAQKWVNFEYFIKSEDDIDFESEEAYKIWDTDFMLIKKIKESTYSSKPIQNGVFTLSWARYHMKSIWDAGAKEGAECIYSDTDSIFVHKEHFKKNAKFMLNGLKVPIIGSEVGQLELECEFDKLLCAGKKQYMGFYTYFQDGKPCIKEKKRFKGIPSNYIIPELYAHLLSGADKEAKIQFLKFRREWGSVKGYIENKTVKAT | 2.29 fold
3 | I311G: TP-DNAP1 variant (protein) MDYKDKALNDLRNVYADFDSLPLDFRQILIKDRATLLQKEDVEKKILERQEDAKKYAEYLKQSEIPERISLPNIKRHKGVSISFEETSEDMVLEPRPFIFDGLNIRCFRRETIFSLKNKILNMVKESSSFKNVSRQSVSFMYFKIFNKGKVIASTKSVNIYEDKIDERLEDLCNNFDDVLKKIIDVTYGYESLFVSETYSYVIFYAKSIYFPQPRCVNNWGNNIPNILTFDSFKLFTANKNNVSCIKQCSRFLWQKDFNTLEEMIEYKNGNICIVTPQLHINDVRDIKSFNDIRLYSESPIKTFSVIDNTGTYLFYFKEHLGVIFNITKSRHDRRVTKFSPLSKFSDVKNITVCFDIESYFDPEKESNQVNIPFICCASIIYNKVIGNIVDFEGRDCVAQMIEYVVDICGELNISSVELIAHNGGGYDFHYILSSMYNPAAIKNILIRNNSFISFNFAHDGVKFSVKDSYSFLLCSLANASKAFLNEETFKKTDFPHHDLKTADDLYKVYKEWSSVNTEINHVVEKEKLLITSEHIVNFTKNDKSKTLIEWSKDYCRNDVLVLSKVWLEFKNAVEDIFNCELVDQTMTLAGLSYKLFQANMPFDVELRHPNKEDYFNMREALIGGRCISVNGIYKDVLCLDVKSLYPASMAFYDQPYGSFKRVSSRPKDELGIYYVRVTPNRNNKSNFFPIRSHNKITYNNFEESTYIAWYTNVDIDIGLSEGHNIEYIPFDSYGNIGYSWSKKGKIFEKYIKDVLYKLKIKYEKQNNKVKRNVIKIIMNSLWGKFAQKWVNFEYFIKSEDDIDFESEEAYKIWDTDFMLIKKIKESTYSSKPIQNGVFTLSWARYHMKSIWDAGAKEGAECIYSDTDSIFVHKEHFKKNAKFMLNGLKVPIIGSEVGQLELECEFDKLLCAGKKQYMGFYTYFQDGKPCIKEKKRFKGIPSNYIIPELYAHLLSGADKEAKIQFLKFRREWGSVKGYIENKTVKAT | 2.05 fold
4 | T312Q: TP-DNAP1 variant (protein) MDYKDKALNDLRNVYADFDSLPLDFRQILIKDRATLLQKEDVEKKILERQEDAKKYAEYLKQSEIPERISLPNIKRHKGVSISFEETSEDMVLEPRPFIFDGLNIRCFRRETIFSLKNKILNMVKESSSFKNVSRQSVSFMYFKIFNKGKVIASTKSVNIYEDKIDERLEDLCNNFDDVLKKIIDVTYGYESLFVSETYSYVIFYAKSIYFPQPRCVNNWGNNIPNILTFDSFKLFTANKNNVSCIKQCSRFLWQKDFNTLEEMIEYKNGNICIVTPQLHINDVRDIKSFNDIRLYSESPIKTFSVIDNTIQYLFYFKEHLGVIFNITKSRHDRRVTKFSPLSKFSDVKNITVCFDIESYFDPEKESNQVNIPFICCASIIYNKVIGNIVDFEGRDCVAQMIEYVVDICGELNISSVELIAHNGGGYDFHYILSSMYNPAAIKNILIRNNSFISFNFAHDGVKFSVKDSYSFLLCSLANASKAFLNEETFKKTDFPHHDLKTADDLYKVYKEWSSVNTEINHVVEKEKLLITSEHIVNFTKNDKSKTLIEWSKDYCRNDVLVLSKVWLEFKNAVEDIFNCELVDQTMTLAGLSYKLFQANMPFDVELRHPNKEDYFNMREALIGGRCISVNGIYKDVLCLDVKSLYPASMAFYDQPYGSFKRVSSRPKDELGIYYVRVTPNRNNKSNFFPIRSHNKITYNNFEESTYIAWYTNVDIDIGLSEGHNIEYIPFDSYGNIGYSWSKKGKIFEKYIKDVLYKLKIKYEKQNNKVKRNVIKIIMNSLWGKFAQKWVNFEYFIKSEDDIDFESEEAYKIWDTDFMLIKKIKESTYSSKPIQNGVFTLSWARYHMKSIWDAGAKEGAECIYSDTDSIFVHKEHFKKNAKFMLNGLKVPIIGSEVGQLELECEFDKLLCAGKKQYMGFYTYFQDGKPCIKEKKRFKGIPSNYIIPELYAHLLSGADKEAKIQFLKFRREWGSVKGYIENKTVKAT | 2.85 fold
5 | I311M: TP-DNAP1 variant (protein) MDYKDKALNDLRNVYADFDSLPLDFRQILIKDRATLLQKEDVEKKILERQEDAKKYAEYLKQSEIPERISLPNIKRHKGVSISFEETSEDMVLEPRPFIFDGLNIRCFRRETIFSLKNKILNMVKESSSFKNVSRQSVSFMYFKIFNKGKVIASTKSVNIYEDKIDERLEDLCNNFDDVLKKIIDVTYGYESLFVSETYSYVIFYAKSIYFPQPRCVNNWGNNIPNILTFDSFKLFTANKNNVSCIKQCSRFLWQKDFNTLEEMIEYKNGNICIVTPQLHINDVRDIKSFNDIRLYSESPIKTFSVIDNTMTYLFYFKEHLGVIFNITKSRHDRRVTKFSPLSKFSDVKNITVCFDIESYFDPEKESNQVNIPFICCASIIYNKVIGNIVDFEGRDCVAQMIEYVVDICGELNISSVELIAHNGGGYDFHYILSSMYNPAAIKNILIRNNSFISFNFAHDGVKFSVKDSYSFLLCSLANASKAFLNEETFKKTDFPHHDLKTADDLYKVYKEWSSVNTEINHVVEKEKLLITSEHIVNFTKNDKSKTLIEWSKDYCRNDVLVLSKVWLEFKNAVEDIFNCELVDQTMTLAGLSYKLFQANMPFDVELRHPNKEDYFNMREALIGGRCISVNGIYKDVLCLDVKSLYPASMAFYDQPYGSFKRVSSRPKDELGIYYVRVTPNRNNKSNFFPIRSHNKITYNNFEESTYIAWYTNVDIDIGLSEGHNIEYIPFDSYGNIGYSWSKKGKIFEKYIKDVLYKLKIKYEKQNNKVKRNVIKIIMNSLWGKFAQKWVNFEYFIKSEDDIDFESEEAYKIWDTDFMLIKKIKESTYSSKPIQNGVFTLSWARYHMKSIWDAGAKEGAECIYSDTDSIFVHKEHFKKNAKFMLNGLKVPIIGSEVGQLELECEFDKLLCAGKKQYMGFYTYFQDGKPCIKEKKRFKGIPSNYIIPELYAHLLSGADKEAKIQFLKFRREWGSVKGYIENKTVKAT | 2.26 fold
6 | Y313H: TP-DNAP1 variant (protein) MDYKDKALNDLRNVYADFDSLPLDFRQILIKDRATLLQKEDVEKKILERQEDAKKYAEYLKQSEIPERISLPNIKRHKGVSISFEETSEDMVLEPRPFIFDGLNIRCFRRETIFSLKNKILNMVKESSSFKNVSRQSVSFMYFKIFNKGKVIASTKSVNIYEDKIDERLEDLCNNFDDVLKKIIDVTYGYESLFVSETYSYVIFYAKSIYFPQPRCVNNWGNNIPNILTFDSFKLFTANKNNVSCIKQCSRFLWQKDFNTLEEMIEYKNGNICIVTPQLHINDVRDIKSFNDIRLYSESPIKTFSVIDNTITHLFYFKEHLGVIFNITKSRHDRRVTKFSPLSKFSDVKNITVCFDIESYFDPEKESNQVNIPFICCASIIYNKVIGNIVDFEGRDCVAQMIEYVVDICGELNISSVELIAHNGGGYDFHYILSSMYNPAAIKNILIRNNSFISFNFAHDGVKFSVKDSYSFLLCSLANASKAFLNEETFKKTDFPHHDLKTADDLYKVYKEWSSVNTEINHVVEKEKLLITSEHIVNFTKNDKSKTLIEWSKDYCRNDVLVLSKVWLEFKNAVEDIFNCELVDQTMTLAGLSYKLFQANMPFDVELRHPNKEDYFNMREALIGGRCISVNGIYKDVLCLDVKSLYPASMAFYDQPYGSFKRVSSRPKDELGIYYVRVTPNRNNKSNFFPIRSHNKITYNNFEESTYIAWYTNVDIDIGLSEGHNIEYIPFDSYGNIGYSWSKKGKIFEKYIKDVLYKLKIKYEKQNNKVKRNVIKIIMNSLWGKFAQKWVNFEYFIKSEDDIDFESEEAYKIWDTDFMLIKKIKESTYSSKPIQNGVFTLSWARYHMKSIWDAGAKEGAECIYSDTDSIFVHKEHFKKNAKFMLNGLKVPIIGSEVGQLELECEFDKLLCAGKKQYMGFYTYFQDGKPCIKEKKRFKGIPSNYIIPELYAHLLSGADKEAKIQFLKFRREWGSVKGYIENKTVKAT | 3.08 fold

Source: US20230242902A1, “A HIGHLY ERROR-PRONE […] R[…] FOR TARGETED CONTINUOUS EVOLUTION IN VIVO” (The Regents of the University of California, priority 2017, published 2023)
